Consider three molecules from PMC9299608, “A Multi‐enzyme Cascade for the Biosynthesis of AICA Ribonucleoside Di‐ and Triphosphate” (Chembiochem, 2021).

The target of one data set is T1, MrPPK (Meiothermus ruber, UniProt M9XB82).
T1 construct: gene K649_10090; expressed in E. coli SHuffle T7 Express; IMAC and desalting
T1 sequence (M9XB82 1-267): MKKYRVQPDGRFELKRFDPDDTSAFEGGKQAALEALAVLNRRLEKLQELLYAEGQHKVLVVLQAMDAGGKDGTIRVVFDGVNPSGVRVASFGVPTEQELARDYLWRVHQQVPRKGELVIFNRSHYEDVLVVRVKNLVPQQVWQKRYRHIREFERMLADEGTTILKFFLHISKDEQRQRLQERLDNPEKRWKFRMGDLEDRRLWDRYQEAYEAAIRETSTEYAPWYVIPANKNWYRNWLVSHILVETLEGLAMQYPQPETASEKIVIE
The experiment in a line: HPLC product quantification, Michaelis-Menten fit limited to data without substrate inhibition. The data set is classed as biochemical. As to conditions: sodium polyphosphate as phosphate donor (standard assay 5 mM), MgCl2 20 mM, tris pH 8.0, 40 °C; not a true KM; reduced activity above 14 mM substrate. From the text:
HPLC product quantification, Michaelis-Menten fit limited to data without substrate inhibition on MrPPK

Data set [1] concerns NC(=O)c1ncn([C@@H]2O[C@H](COP(=O)(O)O)[C@@H](O)[C@H]2O)c1N. Kind of data set: purified protein. As to conditions: sodium polyphosphate as phosphate donor (standard assay 5 mM), MgCl2 20 mM, tris pH 8.0, 30 °C.
Substrate in data set [2]: NC(=O)c1[nH]cnc1N
The experiment in a line: HPLC product quantification, Michaelis-Menten fit. The data set is classed as biochemical, Escherichia coli. As to conditions: co-substrate PRPP, MgCl2 20 mM, tris pH 8.0, standard assay 40 °C (kinetics under conditions optimized for each cascade), text b32 gives 6.2. From the text:
HPLC product quantification, Michaelis-Menten fit on EcAPT

As a reminder, the Km is the substrate concentration at which the rate is half of its maximum. As for `NC(=O)c1ncn([C@@H]2O[C@H](COP(=O)(O)O)[C@@H](O)[C@H]2O)c1N` [ZMP], the Michaelis-Menten constant (Km) at MrPPK is more than 8.6 mM.
For orientation: Vmax means the rate approached at saturating substrate. Consider AjPPK (Acinetobacter johnsonii), for which, in data set [1], the Km is 8.2 ± 1.4 mM and the Vmax stood at 67 µmol/min/mg.

B1: EcAPT (Escherichia coli K-12) (protein)
chain: MTATAQQLEYLKNSIKSIQDYPKPGILFRDVTSLLEDPKAYALSIDLLVERYKNAGITKVVGTEARGFLFGAPVALGLGVGFVPVRKPGKLPRETISETYDLEYGTDQLEIHVDAIKPGDKVLVVDDLLATGGTIEATVKLIRRLGGEVADAAFIINLFDLGGEQRLEKQGITSYSLVPFPGH
notes: expressed in E. coli BL21(DE3); IMAC and desalting
With B1, in data set [2], the Km stood at 6.3 ± 2.3 mM and the Vmax worked out at 8.6 µmol/min/mg.
